B1: Protein phosphatase 1A (Homo sapiens), P35813 (parent)
chain: MGAFLDKPKMEKHNAQGQGNGLRYGLSSMQGWRVEMEDAHTAVIGLPSGLESWSFFAVYDGHAGSQVAKYCCEHLLDHITNNQDFKGSAGAPSVENVKNGIRTGFLEIDEHMRVMSEKKHGADRSGSTAVGVLISPQHTYFINCGDSRGLLCRNRKVHFFTQDHKPSNPLEKERIQNAGGSVMIQRVNGSLAVSRALGDFDYKCVHGKGPTEQLVSPEPEVHDIERSEEDDQFIILACDGIWDVMGNEELCDFVRSRLEVTDDLEKVCNEVVDTCLYKGSRDNMSVILICFPNAPKVSPEAVKKEAELDKYLECRVEEIIKKQGEGVPDLVHVMRTLASENIPSLPPGGELASKRNVIEAVYNRLNPYKNDDTDSTSTDDMW

Variants of: B1
Conditions: with cdk9_human CDK9, P50750
cdk9_human CDK9, P50750, sequence (P50750 whole entry): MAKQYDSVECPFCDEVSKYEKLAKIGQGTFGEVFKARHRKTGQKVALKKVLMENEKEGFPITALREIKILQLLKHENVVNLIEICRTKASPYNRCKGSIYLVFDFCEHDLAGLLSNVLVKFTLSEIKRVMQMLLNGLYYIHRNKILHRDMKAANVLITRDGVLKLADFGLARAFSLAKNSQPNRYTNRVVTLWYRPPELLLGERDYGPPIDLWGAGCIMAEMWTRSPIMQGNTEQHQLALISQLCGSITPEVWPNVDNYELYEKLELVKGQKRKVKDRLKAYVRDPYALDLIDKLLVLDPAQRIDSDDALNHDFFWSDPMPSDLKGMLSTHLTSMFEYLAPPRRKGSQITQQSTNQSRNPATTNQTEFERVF

| effect of a mutation on the interaction | Variant |
| --- | --- |
| with no effect | MGAFLDKPKMEKHNAQGQGNGLRYGLSSMQGWRVEMEDAHTAVIGLPSGLESWSFFAVYDGHAGSQVAKYCCEHLLDHITNNQDFKGSAGAPSVENVKNGIRTGFLEIDEHMRVMSEKKHGADRSGSTAVGVLISPQHTYFINCGDSRGLLCRNRKVHFFTQDHKPSNPLEKERIQNAGGSVMIQRVNGSLAVSRALGDFDYKCVHGKGPTEQLVSPEPEVHDIERSEEDDQFIILACNGIWDVMGNEELCDFVRSRLEVTDDLEKVCNEVVDTCLYKGSRDNMSVILICFPNAPKVSPEAVKKEAELDKYLECRVEEIIKKQGEGVPDLVHVMRTLASENIPSLPPGGELASKRNVIEAVYNRLNPYKNDDTDSTSTDDMW [D239N] |

From IntAct's records for PubMed 18829461
